Results taken from patent US20110064746A1 (published 2011).
One block for each binder: values may come before it.

Biological target: T1, recombinant HMGB-1 (Homo sapiens (Human), UniProt P09429 1-215)
T1 construct: also called recombinant HMGB1 protein; recombinant HMGB-1 obtained from R&D system
T1 sequence: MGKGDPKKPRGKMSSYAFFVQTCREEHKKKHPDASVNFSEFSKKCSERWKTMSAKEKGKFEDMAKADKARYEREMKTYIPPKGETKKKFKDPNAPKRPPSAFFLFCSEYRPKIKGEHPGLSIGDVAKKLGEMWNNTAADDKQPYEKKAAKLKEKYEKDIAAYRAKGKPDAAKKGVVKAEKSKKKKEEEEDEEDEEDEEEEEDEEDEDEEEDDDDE
Assay: SPR, BIACORE3000

Kd: 7.8 nM
B1: anti-HMGB-1 mAb 3B1 (antibody, V domains shown)
VH: QVQLQQPGAELVKPGASVKLSCKASGYTFTSYWMHWVKQRPGQGLEWIGNIDPSDSETHYNQKFKDKATLTVDKSSSTAYMQLNSLTSEDSAVYYCAKRGYYGYDYWGQGTTLTV
VL: DVLMTQTPLSLPVSLGDQASISCRSSQSIVHSNGNTYLEWYLQKAGQSPKLLIYKVSNRFSGVPDRFSGSGSGTDFTLKISRVEAEDLGVYYCFQGAHVPRTFGGGTKLEIK

Kd: 1.3 nM
B2: anti-HMGB-1 mAb 3E8 (antibody, V domains shown)
VH: QVQLQQSGPELVKPGASVKISCKASGYAFSNYWMNWVKQRPGKGLEWIGRIYPGDGDMAYNGKFRGKATLTADKSSSTAYMQLSSLTSEDSAVYFCARSLDGYVGYVMDYWGQGTSVTVSS
VL: DIVMTQAAPSVPVTPGESVSISCRSSKSLLHRNGNIFLYWFLQRPGQSPQLLIYRMSNLASGVPDRFSGSGSGTAFTLRISRVETEDVGVYYCMQHLEYPFTFGSGTKLEIK
